Results taken from the supplement of paper PMC10567573.

B1: HESX1 (parent)
chain: ENKPSTCSFSIERILGLDQKKDCV
B2: EFHC1 (parent)
chain: NIYYYLEDDSMSVIEPVVENSGIL

Variants of: B1
Assay: protein stability index of a GFP-peptide fusion (GPS, HEK-293T) (PSI 1-6); higher = more stable
Details: c terminus: a fixed tail appended
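Note: lentivirally expressed fusions sorted by FACS into six bins by GFP to DsRed ratio, PSI derived from sequencing read proportions per bin multiplied by bin number.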

| Variant | protein stability index |
| --- | --- |
| ENKPSTCSFSIERILGLDQKKDCW | 2.18 |
| ENKPSTCSFSIERILGLDQKKDCL | 3.03 |
| ENKPSTCSFSIERILGLDQKKDCM | 2.89 |
| ENKPSTCSFSIERILGLDQKKDCK | 4.15 |
| ENKPSTCSFSIERILGLDQKKDCI | 3.64 |
| ENKPSTCSFSIERILGLDQKKDCN | 3.79 |
| ENKPSTCSFSIERILGLDQKKDCR | 3.38 |
| ENKPSTCSFSIERILGLDQKKDCS | 2.88 |
| ENKPSTCSFSIERILGLDQKKDCG | 3.9 |
| ENKPSTCSFSIERILGLDQKKDCE | 4.25 |
| ENKPSTCSFSIERILGLDQKKDCH | 4.64 |
| ENKPSTCSFSIERILGLDQKKDCF | 2.91 |
| ENKPSTCSFSIERILGLDQKKDCY | 2.74 |
| ENKPSTCSFSIERILGLDQKKDCC | 3.49 |
| ENKPSTCSFSIERILGLDQKKDCT | 2.83 |
| ENKPSTCSFSIERILGLDQKKDCQ | 3.81 |
| ENKPSTCSFSIERILGLDQKKDCP | 3.14 |
| ENKPSTCSFSIERILGLDQKKDCA | 3.81 |
| ENKPSTCSFSIERILGLDQKKDCD | 4.18 |
| ENKPSTCSFSIERILGLDQKKFCV | 2.1 |
| ENKPSTCSFSIERILGLDQKKWCV | 1.46 |

| Variant | protein stability index |
| --- | --- |
| ENKPSTCSFSIERILGLDQKKKCV | 2.73 |
| ENKPSTCSFSIERILGLDQKKQCV | 2.73 |
| ENKPSTCSFSIERILGLDQKKCCV | 2.12 |
| ENKPSTCSFSIERILGLDQKKACV | 2.51 |
| ENKPSTCSFSIERILGLDQKKRCV | 3.08 |
| ENKPSTCSFSIERILGLDQKKHCV | 2.04 |
| ENKPSTCSFSIERILGLDQKKSCV | 3.41 |
| ENKPSTCSFSIERILGLDQKKMCV | 1.77 |
| ENKPSTCSFSIERILGLDQKKYCV | 2.14 |
| ENKPSTCSFSIERILGLDQKKECV | 3.24 |
| ENKPSTCSFSIERILGLDQKKNCV | 2.9 |
| ENKPSTCSFSIERILGLDQKKTCV | 2.02 |
| ENKPSTCSFSIERILGLDQKKPCV | 3.08 |
| ENKPSTCSFSIERILGLDQKKLCV | 1.5 |
| ENKPSTCSFSIERILGLDQKKICV | 1.94 |
| ENKPSTCSFSIERILGLDQKKVCV | 1.56 |
| ENKPSTCSFSIERILGLDQKKGCV | 2.78 |
| ENKPSTCSFSIERILGLDQKSDCV | 2.95 |
| ENKPSTCSFSIERILGLDQKVDCV | 2.54 |
| ENKPSTCSFSIERILGLDQKYDCV | 1.67 |
| ENKPSTCSFSIERILGLDQKQDCV | 2.93 |

| Variant | protein stability index |
| --- | --- |
| ENKPSTCSFSIERILGLDQKTDCV | 3.19 |
| ENKPSTCSFSIERILGLDQKRDCV | 2.62 |
| ENKPSTCSFSIERILGLDQKWDCV | 1.86 |
| ENKPSTCSFSIERILGLDQKKDNV | 3.23 |
| ENKPSTCSFSIERILGLDQKKDVV | 3.41 |
| ENKPSTCSFSIERILGLDQKKDPV | 3.29 |
| ENKPSTCSFSIERILGLDQKKDRV | 3.92 |
| ENKPSTCSFSIERILGLDQKKDIV | 2.91 |
| ENKPSTCSFSIERILGLDQKKDYV | 2.46 |
| ENKPSTCSFSIERILGLDQKKDEV | 3.6 |
| ENKPSTCSFSIERILGLDQKKDSV | 3.45 |
| ENKPSTCSFSIERILGLDQKKDAV | 3.64 |
| ENKPSTCSFSIERILGLDQKKDTV | 3.16 |
| ENKPSTCSFSIERILGLDQKKDDV | 4.38 |
| ENKPSTCSFSIERILGLDQKKDHV | 3.33 |
| ENKPSTCSFSIERILGLDQKKDLV | 2.7 |
| ENKPSTCSFSIERILGLDQKKDKV | 3.41 |
| ENKPSTCSFSIERILGLDQKKDFV | 2.62 |
| ENKPSTCSFSIERILGLDQKKDQV | 3.42 |
| ENKPSTCSFSIERILGLDQKKDGV | 3.56 |
| ENKPSTCSFSIERILGLDQKKDMV | 2.83 |

Variants of: B2
Assay: as above
Details: c terminus: a fixed tail appended

| Variant | protein stability index |
| --- | --- |
| GIYYYLEDDSMSVIEPVVENSGIL | 2.08 |
| CIYYYLEDDSMSVIEPVVENSGIL | 1.54 |
| MIYYYLEDDSMSVIEPVVENSGIL | 2.34 |
| RIYYYLEDDSMSVIEPVVENSGIL | 1.32 |
| QIYYYLEDDSMSVIEPVVENSGIL | 2.83 |
| SIYYYLEDDSMSVIEPVVENSGIL | 2.19 |
| DIYYYLEDDSMSVIEPVVENSGIL | 1.59 |
| LIYYYLEDDSMSVIEPVVENSGIL | 1.92 |
| KIYYYLEDDSMSVIEPVVENSGIL | 1.09 |
| YIYYYLEDDSMSVIEPVVENSGIL | 1.81 |
| TIYYYLEDDSMSVIEPVVENSGIL | 1.4 |
| PIYYYLEDDSMSVIEPVVENSGIL | 2.15 |
| HIYYYLEDDSMSVIEPVVENSGIL | 1.74 |
| FIYYYLEDDSMSVIEPVVENSGIL | 2.88 |
| EIYYYLEDDSMSVIEPVVENSGIL | 2.48 |
| WIYYYLEDDSMSVIEPVVENSGIL | 1.61 |
| AIYYYLEDDSMSVIEPVVENSGIL | 2.06 |
| NIYYYLIDDSMSVIEPVVENSGIL | 2.12 |
| NIYYYLQDDSMSVIEPVVENSGIL | 1.94 |
| NIYYYLADDSMSVIEPVVENSGIL | 1.4 |
| NIYYYLFDDSMSVIEPVVENSGIL | 1.13 |
| NIYYYLGDDSMSVIEPVVENSGIL | 1.65 |
| NIYYYLHDDSMSVIEPVVENSGIL | 1.3 |
| NIYYYLNDDSMSVIEPVVENSGIL | 2.72 |
| NIYYYLPDDSMSVIEPVVENSGIL | 1.92 |

| Variant | protein stability index |
| --- | --- |
| NIYYYLKDDSMSVIEPVVENSGIL | 1.91 |
| NIYYYLLDDSMSVIEPVVENSGIL | 2.33 |
| NIYYYLCDDSMSVIEPVVENSGIL | 2.43 |
| NIYYYLDDDSMSVIEPVVENSGIL | 1.89 |
| NIYYYLMDDSMSVIEPVVENSGIL | 2.09 |
| NIYYFLEDDSMSVIEPVVENSGIL | 1.94 |
| NIYYVLEDDSMSVIEPVVENSGIL | 2.39 |
| NIYYILEDDSMSVIEPVVENSGIL | 1.92 |
| NIYYKLEDDSMSVIEPVVENSGIL | 3.41 |
| NIYYSLEDDSMSVIEPVVENSGIL | 3.23 |
| NIYYMLEDDSMSVIEPVVENSGIL | 2.36 |
| NIYYTLEDDSMSVIEPVVENSGIL | 2.79 |
| NIYYLLEDDSMSVIEPVVENSGIL | 2.51 |
| NIYYPLEDDSMSVIEPVVENSGIL | 3.83 |
| NIYYWLEDDSMSVIEPVVENSGIL | 1.75 |
| NIYYRLEDDSMSVIEPVVENSGIL | 3.35 |
| NIYYCLEDDSMSVIEPVVENSGIL | 2.45 |
| NIYYALEDDSMSVIEPVVENSGIL | 3.1 |
| NIYYQLEDDSMSVIEPVVENSGIL | 2.92 |
| NIYYHLEDDSMSVIEPVVENSGIL | 2.69 |
| NIYYGLEDDSMSVIEPVVENSGIL | 3.27 |
| NIYYDLEDDSMSVIEPVVENSGIL | 3.64 |
| NIYYNLEDDSMSVIEPVVENSGIL | 2.78 |
| NIYYELEDDSMSVIEPVVENSGIL | 3.62 |
| NIHYYLEDDSMSVIEPVVENSGIL | 2.81 |

| Variant | protein stability index |
| --- | --- |
| NIEYYLEDDSMSVIEPVVENSGIL | 3.76 |
| NIMYYLEDDSMSVIEPVVENSGIL | 2.17 |
| NIFYYLEDDSMSVIEPVVENSGIL | 2.07 |
| NIVYYLEDDSMSVIEPVVENSGIL | 2.38 |
| NIIYYLEDDSMSVIEPVVENSGIL | 2.23 |
| NICYYLEDDSMSVIEPVVENSGIL | 2.9 |
| NILYYLEDDSMSVIEPVVENSGIL | 2.15 |
| NIGYYLEDDSMSVIEPVVENSGIL | 3.43 |
| NISYYLEDDSMSVIEPVVENSGIL | 3.2 |
| NIQYYLEDDSMSVIEPVVENSGIL | 3.12 |
| NIWYYLEDDSMSVIEPVVENSGIL | 1.82 |
| NITYYLEDDSMSVIEPVVENSGIL | 3.64 |
| NIAYYLEDDSMSVIEPVVENSGIL | 2.85 |
| NIKYYLEDDSMSVIEPVVENSGIL | 2.72 |
| NIPYYLEDDSMSVIEPVVENSGIL | 3.39 |
| NIRYYLEDDSMSVIEPVVENSGIL | 3.04 |
| NIDYYLEDDSMSVIEPVVENSGIL | 4.08 |
| NINYYLEDDSMSVIEPVVENSGIL | 3.38 |
| NWYYYLEDDSMSVIEPVVENSGIL | 2.35 |
| NPYYYLEDDSMSVIEPVVENSGIL | 3.82 |
| NEYYYLEDDSMSVIEPVVENSGIL | 3.79 |
| NMYYYLEDDSMSVIEPVVENSGIL | 2.96 |
| NRYYYLEDDSMSVIEPVVENSGIL | 3.03 |
| NFYYYLEDDSMSVIEPVVENSGIL | 1.82 |
| NTYYYLEDDSMSVIEPVVENSGIL | 3.29 |

| Variant | protein stability index |
| --- | --- |
| NKYYYLEDDSMSVIEPVVENSGIL | 3.44 |
| NSYYYLEDDSMSVIEPVVENSGIL | 3.4 |
| NNYYYLEDDSMSVIEPVVENSGIL | 3.23 |
| NCYYYLEDDSMSVIEPVVENSGIL | 2.29 |
| NLYYYLEDDSMSVIEPVVENSGIL | 2.05 |
| NGYYYLEDDSMSVIEPVVENSGIL | 3.21 |
| NAYYYLEDDSMSVIEPVVENSGIL | 2.86 |
| NVYYYLEDDSMSVIEPVVENSGIL | 2.13 |
| NHYYYLEDDSMSVIEPVVENSGIL | 2.72 |
| NYYYYLEDDSMSVIEPVVENSGIL | 2.07 |
| NQYYYLEDDSMSVIEPVVENSGIL | 3.33 |
| NDYYYLEDDSMSVIEPVVENSGIL | 2.62 |
| NIYYYREDDSMSVIEPVVENSGIL | 2.93 |
| NIYYYHEDDSMSVIEPVVENSGIL | 3.03 |
| NIYYYNEDDSMSVIEPVVENSGIL | 3.57 |
| NIYYYAEDDSMSVIEPVVENSGIL | 3.01 |
| NIYYYWEDDSMSVIEPVVENSGIL | 1.52 |
| NIYYYEEDDSMSVIEPVVENSGIL | 2.88 |
| NIYYYTEDDSMSVIEPVVENSGIL | 2.71 |
| NIYYYYEDDSMSVIEPVVENSGIL | 2.22 |
| NIYYYIEDDSMSVIEPVVENSGIL | 2.23 |
| NIYYYSEDDSMSVIEPVVENSGIL | 2.5 |
| NIYYYMEDDSMSVIEPVVENSGIL | 2.25 |
| NIYYYFEDDSMSVIEPVVENSGIL | 1.72 |
| NIYYYCEDDSMSVIEPVVENSGIL | 2.24 |

| Variant | protein stability index |
| --- | --- |
| NIYYYQEDDSMSVIEPVVENSGIL | 2.84 |
| NIYYYKEDDSMSVIEPVVENSGIL | 2.68 |
| NIYYYGEDDSMSVIEPVVENSGIL | 3.65 |
| NIYYYDEDDSMSVIEPVVENSGIL | 3.26 |
| NIYYYVEDDSMSVIEPVVENSGIL | 2.23 |
| NIYYYPEDDSMSVIEPVVENSGIL | 4.08 |
| NIYKYLEDDSMSVIEPVVENSGIL | 2.66 |
| NIYAYLEDDSMSVIEPVVENSGIL | 2.12 |
| NIYMYLEDDSMSVIEPVVENSGIL | 2.18 |
| NIYVYLEDDSMSVIEPVVENSGIL | 1.24 |
| NIYTYLEDDSMSVIEPVVENSGIL | 2.91 |
| NIYHYLEDDSMSVIEPVVENSGIL | 2.33 |
| NIYSYLEDDSMSVIEPVVENSGIL | 3.48 |
| NIYEYLEDDSMSVIEPVVENSGIL | 2.78 |
| NIYRYLEDDSMSVIEPVVENSGIL | 2.51 |
| NIYIYLEDDSMSVIEPVVENSGIL | 1.49 |
| NIYQYLEDDSMSVIEPVVENSGIL | 2.39 |
| NIYDYLEDDSMSVIEPVVENSGIL | 2.74 |
| NIYGYLEDDSMSVIEPVVENSGIL | 3.49 |
| NIYPYLEDDSMSVIEPVVENSGIL | 4.01 |
| NIYLYLEDDSMSVIEPVVENSGIL | 1.42 |
| NIYCYLEDDSMSVIEPVVENSGIL | 2.31 |
| NIYWYLEDDSMSVIEPVVENSGIL | 2.99 |
| NIYFYLEDDSMSVIEPVVENSGIL | 1.85 |
| NIYNYLEDDSMSVIEPVVENSGIL | 2.35 |
